According to the supplement of paper PMC10065799, “High-throughput profiling of sequence recognition by tyrosine kinases and SH2 domains using bacterial peptide display” (eLife, 2023):

Columns and labels:
AncSZ = test: phosphorylation enrichment, bacterial display (enrichment ratio); higher = better substrate or ligand; peptides without Tyr show the background
EPHB1 = EPHB1 (UniProt P54762); test: as above
EPHB2 = EPHB2 (UniProt P29323); test: as above
FGFR1 = FGFR1 (UniProt P11362); test: as above
FGFR3 = FGFR3 (UniProt P22607); test: as above
Fer (mouse) = test: as above
Fes = Fes (UniProt P07332); test: as above
Fyn = Fyn (UniProt P06241); test: as above
Hck = Hck (UniProt P08631); test: as above
Jak2 = Jak2 (UniProt O60674); test: as above
MERTK = MERTK (UniProt Q12866); test: as above
c-Abl (mouse) = test: as above
c-Src = test: as above
Grb2 SH2 = Grb2 SH2 (UniProt P62993); test: SH2 binding enrichment of the phosphorylated peptide, bacterial display (enrichment ratio); higher = better substrate or ligand; peptides without Tyr show the background
SHP2-C SH2 = test: as above
c-Src SH2 = test: as above
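Wherever SH2 binding enrichment of the phosphorylated peptide, bacterial display is given: peptide library displayed on the E. coli surface as eCPX fusions, selected cells deep-sequenced, score is each peptide's frequency after selection divided by its frequency in the input.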
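Wherever phosphorylation enrichment, bacterial display is given: 11-residue human phosphosite peptides and single-mutation variants displayed on the E. coli surface, counted by deep sequencing, each peptide's frequency after selection divided by its frequency in the unselected input library; frequency after pTyr selection over input frequency; kinase dosed for 20-30% of maximal phosphorylation in three min.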

Fyn, sequence (P06241 whole entry, looked up): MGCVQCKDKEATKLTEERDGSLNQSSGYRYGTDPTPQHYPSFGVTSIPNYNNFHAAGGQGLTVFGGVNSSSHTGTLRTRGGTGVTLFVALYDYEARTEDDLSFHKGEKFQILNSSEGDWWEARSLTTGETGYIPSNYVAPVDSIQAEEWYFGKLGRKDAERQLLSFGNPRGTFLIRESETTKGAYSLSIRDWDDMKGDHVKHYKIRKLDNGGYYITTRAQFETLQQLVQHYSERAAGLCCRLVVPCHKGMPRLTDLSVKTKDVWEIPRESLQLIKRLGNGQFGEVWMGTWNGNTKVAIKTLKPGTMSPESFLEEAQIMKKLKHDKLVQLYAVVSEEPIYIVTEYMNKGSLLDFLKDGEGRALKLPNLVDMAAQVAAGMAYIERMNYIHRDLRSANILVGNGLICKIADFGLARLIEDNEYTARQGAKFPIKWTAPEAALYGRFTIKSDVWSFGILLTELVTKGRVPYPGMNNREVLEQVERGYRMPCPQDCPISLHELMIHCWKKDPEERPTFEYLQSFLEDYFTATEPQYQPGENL
Hck, sequence (P08631 whole entry, looked up): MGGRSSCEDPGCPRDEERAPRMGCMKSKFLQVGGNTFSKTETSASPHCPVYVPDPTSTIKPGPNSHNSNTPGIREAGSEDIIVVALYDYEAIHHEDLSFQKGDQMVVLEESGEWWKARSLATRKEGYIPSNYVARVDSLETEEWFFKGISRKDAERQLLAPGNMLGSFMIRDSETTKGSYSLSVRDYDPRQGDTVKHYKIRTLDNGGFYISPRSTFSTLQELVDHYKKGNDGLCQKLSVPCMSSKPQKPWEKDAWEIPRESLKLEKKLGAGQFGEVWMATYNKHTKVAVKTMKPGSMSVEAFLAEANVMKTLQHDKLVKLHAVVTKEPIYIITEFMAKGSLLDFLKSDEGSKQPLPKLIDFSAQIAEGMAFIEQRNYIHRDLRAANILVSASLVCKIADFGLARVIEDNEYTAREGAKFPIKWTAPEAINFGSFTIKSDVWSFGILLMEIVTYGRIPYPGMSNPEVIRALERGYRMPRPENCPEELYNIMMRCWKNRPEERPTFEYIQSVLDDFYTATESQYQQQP
EPHB1, sequence (P54762 whole entry, looked up): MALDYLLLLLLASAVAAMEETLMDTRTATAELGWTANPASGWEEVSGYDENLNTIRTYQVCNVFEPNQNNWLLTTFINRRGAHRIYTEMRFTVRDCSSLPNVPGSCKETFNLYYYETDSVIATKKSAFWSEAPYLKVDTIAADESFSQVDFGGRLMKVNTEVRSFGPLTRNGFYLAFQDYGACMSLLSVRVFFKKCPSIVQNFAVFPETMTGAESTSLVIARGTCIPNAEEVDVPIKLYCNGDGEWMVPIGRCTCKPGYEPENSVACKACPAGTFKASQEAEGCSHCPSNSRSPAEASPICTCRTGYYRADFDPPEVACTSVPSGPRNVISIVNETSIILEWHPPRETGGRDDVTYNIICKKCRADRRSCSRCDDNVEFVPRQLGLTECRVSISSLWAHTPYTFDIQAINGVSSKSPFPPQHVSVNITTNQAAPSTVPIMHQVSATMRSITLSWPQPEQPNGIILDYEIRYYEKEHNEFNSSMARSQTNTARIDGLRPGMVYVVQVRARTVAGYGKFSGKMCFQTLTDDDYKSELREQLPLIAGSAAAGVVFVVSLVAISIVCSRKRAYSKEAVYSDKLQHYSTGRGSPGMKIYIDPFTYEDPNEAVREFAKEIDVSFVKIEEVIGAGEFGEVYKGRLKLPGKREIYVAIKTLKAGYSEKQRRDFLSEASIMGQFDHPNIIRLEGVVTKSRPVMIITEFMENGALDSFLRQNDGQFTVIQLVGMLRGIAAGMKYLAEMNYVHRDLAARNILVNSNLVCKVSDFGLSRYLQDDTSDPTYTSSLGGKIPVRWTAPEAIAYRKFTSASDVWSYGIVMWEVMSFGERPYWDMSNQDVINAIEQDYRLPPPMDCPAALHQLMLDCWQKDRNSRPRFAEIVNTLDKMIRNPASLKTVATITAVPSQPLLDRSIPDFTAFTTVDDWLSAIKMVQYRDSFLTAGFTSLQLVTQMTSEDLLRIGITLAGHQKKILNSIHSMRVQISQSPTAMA
FGFR3, sequence (P22607 whole entry, looked up): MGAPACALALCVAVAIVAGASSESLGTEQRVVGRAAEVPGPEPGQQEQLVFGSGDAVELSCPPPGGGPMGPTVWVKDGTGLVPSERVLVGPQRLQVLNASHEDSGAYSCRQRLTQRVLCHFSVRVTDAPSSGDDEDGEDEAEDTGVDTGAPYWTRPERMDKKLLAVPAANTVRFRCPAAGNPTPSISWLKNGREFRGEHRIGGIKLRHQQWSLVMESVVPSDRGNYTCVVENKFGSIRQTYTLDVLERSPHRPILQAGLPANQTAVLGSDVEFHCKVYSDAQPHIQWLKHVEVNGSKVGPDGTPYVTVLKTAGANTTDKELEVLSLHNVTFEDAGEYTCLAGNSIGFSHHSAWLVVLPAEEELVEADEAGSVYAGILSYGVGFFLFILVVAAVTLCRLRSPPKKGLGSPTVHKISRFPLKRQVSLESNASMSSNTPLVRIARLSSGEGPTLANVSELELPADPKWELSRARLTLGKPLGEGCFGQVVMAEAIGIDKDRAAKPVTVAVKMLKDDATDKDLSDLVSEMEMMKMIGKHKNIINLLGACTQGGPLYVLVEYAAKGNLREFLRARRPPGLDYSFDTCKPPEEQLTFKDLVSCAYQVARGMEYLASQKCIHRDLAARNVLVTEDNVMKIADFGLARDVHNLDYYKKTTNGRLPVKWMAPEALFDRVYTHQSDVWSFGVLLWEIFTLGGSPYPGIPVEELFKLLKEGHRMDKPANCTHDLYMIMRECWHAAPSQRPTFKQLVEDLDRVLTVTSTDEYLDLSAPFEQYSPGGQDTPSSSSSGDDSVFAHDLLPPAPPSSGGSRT
EPHB2, sequence (P29323 whole entry, looked up): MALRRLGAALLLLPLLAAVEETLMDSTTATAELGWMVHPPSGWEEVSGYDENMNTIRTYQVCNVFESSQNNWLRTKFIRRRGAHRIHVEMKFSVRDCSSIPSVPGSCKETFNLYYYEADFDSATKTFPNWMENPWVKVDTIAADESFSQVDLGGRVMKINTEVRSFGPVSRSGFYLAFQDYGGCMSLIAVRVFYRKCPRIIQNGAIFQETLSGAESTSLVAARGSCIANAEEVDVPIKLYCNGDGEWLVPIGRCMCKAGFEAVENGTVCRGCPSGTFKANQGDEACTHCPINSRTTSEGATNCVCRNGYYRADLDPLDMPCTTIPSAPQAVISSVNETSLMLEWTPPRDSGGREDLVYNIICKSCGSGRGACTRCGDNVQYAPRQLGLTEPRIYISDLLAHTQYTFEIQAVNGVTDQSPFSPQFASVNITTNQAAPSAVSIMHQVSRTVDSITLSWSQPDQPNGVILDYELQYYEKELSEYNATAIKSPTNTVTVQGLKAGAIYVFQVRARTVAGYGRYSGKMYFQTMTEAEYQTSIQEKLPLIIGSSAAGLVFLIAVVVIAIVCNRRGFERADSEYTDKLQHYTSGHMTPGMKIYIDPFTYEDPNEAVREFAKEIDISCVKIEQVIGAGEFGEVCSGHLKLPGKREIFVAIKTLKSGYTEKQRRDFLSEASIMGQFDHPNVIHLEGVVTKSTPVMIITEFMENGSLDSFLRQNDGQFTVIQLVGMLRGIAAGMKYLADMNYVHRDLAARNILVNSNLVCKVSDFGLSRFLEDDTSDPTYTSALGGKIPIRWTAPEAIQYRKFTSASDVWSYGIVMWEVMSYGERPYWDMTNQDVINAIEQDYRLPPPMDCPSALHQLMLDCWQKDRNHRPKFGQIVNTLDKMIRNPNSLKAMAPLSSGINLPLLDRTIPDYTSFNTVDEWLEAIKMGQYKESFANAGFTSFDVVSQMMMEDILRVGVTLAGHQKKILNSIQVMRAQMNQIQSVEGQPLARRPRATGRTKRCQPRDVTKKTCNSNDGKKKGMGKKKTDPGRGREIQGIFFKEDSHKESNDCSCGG
MERTK, sequence (Q12866 whole entry, looked up): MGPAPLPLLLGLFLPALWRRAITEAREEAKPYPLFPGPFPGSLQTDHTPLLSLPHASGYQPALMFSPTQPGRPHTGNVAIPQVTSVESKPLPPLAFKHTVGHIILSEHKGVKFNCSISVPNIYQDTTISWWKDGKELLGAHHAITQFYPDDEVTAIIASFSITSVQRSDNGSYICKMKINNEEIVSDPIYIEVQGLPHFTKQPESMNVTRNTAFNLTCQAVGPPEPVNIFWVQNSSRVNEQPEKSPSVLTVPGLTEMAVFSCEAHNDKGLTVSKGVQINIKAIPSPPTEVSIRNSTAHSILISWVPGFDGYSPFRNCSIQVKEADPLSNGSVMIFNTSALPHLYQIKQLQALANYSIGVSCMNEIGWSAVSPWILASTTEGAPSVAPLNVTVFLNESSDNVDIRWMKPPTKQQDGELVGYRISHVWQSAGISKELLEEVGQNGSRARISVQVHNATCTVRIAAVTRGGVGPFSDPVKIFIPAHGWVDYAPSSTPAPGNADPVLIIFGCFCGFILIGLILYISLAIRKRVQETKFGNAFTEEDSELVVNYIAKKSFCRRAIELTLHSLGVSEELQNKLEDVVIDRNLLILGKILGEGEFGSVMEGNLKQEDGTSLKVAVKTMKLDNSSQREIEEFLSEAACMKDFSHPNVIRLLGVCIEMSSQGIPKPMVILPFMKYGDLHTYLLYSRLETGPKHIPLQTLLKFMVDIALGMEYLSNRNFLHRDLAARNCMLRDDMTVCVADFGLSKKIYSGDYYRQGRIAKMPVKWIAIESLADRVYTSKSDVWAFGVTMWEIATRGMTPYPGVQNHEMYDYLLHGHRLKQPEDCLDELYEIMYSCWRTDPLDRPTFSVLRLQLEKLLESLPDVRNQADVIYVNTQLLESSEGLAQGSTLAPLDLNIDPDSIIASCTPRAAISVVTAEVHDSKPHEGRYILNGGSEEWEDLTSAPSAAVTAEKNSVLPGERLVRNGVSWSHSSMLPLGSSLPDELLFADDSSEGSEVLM

Sequence | phosphorylation enrichment (AncSZ) | phosphorylation enrichment (EPHB1) | phosphorylation enrichment (EPHB2) | phosphorylation enrichment (FGFR1) | phosphorylation enrichment (FGFR3) | phosphorylation enrichment (Fer (mouse)) | phosphorylation enrichment (Fes) | phosphorylation enrichment (Fyn) | phosphorylation enrichment (Hck) | phosphorylation enrichment (Jak2) | phosphorylation enrichment (MERTK) | phosphorylation enrichment (c-Abl (mouse)) | phosphorylation enrichment (c-Src) | SH2 binding enrichment (Grb2 SH2) | SH2 binding enrichment (SHP2-C SH2) | SH2 binding enrichment (c-Src SH2)
QQLQGYIPSNY [FRK_Y99] | 0.623 | 0.473 | 0.437 | 0.314 | 0.49 | 0.329 | 0.671 | 0.356 | 0.633 | 0.647 | 0.475 | 0.47 | 0.382 | 0.944 | 0.477 | 0.333
RMDGTYACSYT [FLNB_Y704] | 0.934 | 0.876 | 0.85 | 0.538 | 0.579 | 0.617 | 1.02 | 1.87 | 1.74 | 0.92 | 0.757 | 1.47 | 3.25 | 1.17 | 1.02 | 0.923
RTVPLYESLRK [DDB1_Y718_P721L] | 0.668 | 23 | 26.1 | 0.466 | 0.437 | 11.3 | 1.15 | 11.7 | 12.4 | 0.547 | 8.17 | 1.07 | 8.53 | 1.04 | 1.07 | 0.78
NLPGGYSGSVK [MCPH1_Y606] | 0.595 | 0.407 | 0.455 | 0.374 | 0.425 | 0.375 | 0.652 | 0.484 | 0.447 | 0.618 | 0.371 | 0.747 | 0.46 | 0.72 | 0.766 | 0.448
QSRSPYSSRHS [CDK13_Y415_R410Q] | 0.85 | 0.471 | 0.443 | 0.558 | 0.541 | 0.543 | 0.808 | 0.715 | 0.593 | 0.823 | 0.452 | 0.597 | 0.705 | 1.2 | 0.852 | 0.549
HQNGMYRLHQD [SGSH_Y89_G90R] | 0.814 | 0.741 | 0.745 | 0.521 | 0.661 | 0.66 | 0.971 | 0.42 | 0.461 | 0.933 | 0.414 | 0.549 | 0.5 | 0.869 | 0.776 | 0.504
EIVHRYVELLD [AP1S3_Y87] | 0.892 | 0.483 | 0.53 | 0.41 | 0.673 | 0.499 | 1.06 | 0.464 | 0.504 | 0.922 | 0.506 | 0.744 | 0.498 | 0.91 | 1.11 | 21.6
SHISGYATLRR [RAPH1_Y1226] | 0.941 | 0.374 | 0.391 | 0.392 | 0.562 | 0.399 | 0.753 | 0.392 | 0.4 | 0.628 | 0.438 | 0.43 | 0.382 | 0.697 | 1.65 | 0.567
VMAALYGRLFE [BTD_Y536_T532M_YF] | 0.981 | 0.597 | 0.743 | 0.457 | 0.752 | 0.612 | 1.18 | 6.68 | 5.53 | 1.03 | 1.34 | 0.967 | 6.1 | 1.59 | 1.44 | 1.18
GFITSYREEEQ | 1.19 | 0.63 | 0.775 | 0.468 | 0.631 | 0.488 | 1.14 | 0.494 | 0.517 | 1.04 | 0.489 | 0.769 | 0.48 | 0.681 | 0.722 | 0.502
EASGIYVKSII [PATJ_Y396] | 1.02 | 0.543 | 0.535 | 0.523 | 0.659 | 0.492 | 1.13 | 0.429 | 0.52 | 0.983 | 0.438 | 0.677 | 0.458 | 0.994 | 0.674 | 0.466
LDLSYYPTSSS [EMD_Y182] | 2.17 | 1.21 | 1.18 | 3.94 | 3.28 | 0.835 | 1.81 | 0.762 | 0.947 | 5.02 | 0.955 | 1.41 | 0.72 | 0.853 | 0.66 | 1.24
VQEDIYDEFVV [ALDH2_Y332_E337V] | 1.55 | 0.676 | 0.827 | 0.599 | 0.886 | 5.77 | 1.25 | 3.96 | 2.81 | 1.37 | 3.17 | 1.75 | 3.57 | 0.824 | 0.822 | 0.495
TVEDHDFEGGI [TKT_Y563_Y563D_YF] | 1.06 | 0.692 | 0.543 | 0.578 | 0.873 | 0.525 | 1.14 | 0.561 | 0.538 | 1.05 | 0.452 | 0.765 | 0.472 | 0.737 | 0.515 | 0.422
KVGPGYLGSGG [RET_Y826] | 0.438 | 0.287 | 0.377 | 0.334 | 0.392 | 0.365 | 0.451 | 0.42 | 0.315 | 0.457 | 0.423 | 0.399 | 0.368 | 0.685 | 0.583 | 0.44
GKANRYFSPNF [PTEN_Y336_D331G] | 0.622 | 0.379 | 0.424 | 0.455 | 0.685 | 0.477 | 0.612 | 0.479 | 0.398 | 0.811 | 0.46 | 0.779 | 0.528 | 0.967 | 1.06 | 0.525
ESAAIYNPVIY [RHO_Y301_K296E] | 1.01 | 0.995 | 0.944 | 1.99 | 1.88 | 17.5 | 1.26 | 8.88 | 9.21 | 0.793 | 3.45 | 1.15 | 7.21 | 0.758 | 0.553 | 0.464
LTTPTFGDLNH [TUBB_Y222_Y222F] | 0.729 | 0.407 | 0.384 | 0.554 | 0.577 | 1.05 | 0.871 | 0.378 | 0.308 | 0.609 | 0.442 | 0.612 | 0.577 | 0.604 | 0.551 | 0.822
DRLAVCIDRVR [LMNA_Y45_Y45C] | 0.942 | 0.605 | 0.518 | 0.467 | 0.682 | 0.457 | 1.15 | 0.46 | 0.477 | 0.904 | 0.394 | 0.76 | 0.436 | 0.807 | 0.653 | 0.541
HNVPICEGYAL [ACTC1_Y168_Y168C] | 0.86 | 0.801 | 0.513 | 0.732 | 0.841 | 0.499 | 1 | 0.434 | 0.916 | 0.895 | 0.505 | 0.652 | 0.668 | 0.833 | 0.779 | 0.587
SIKDKYVMALF [KCNH2_Y611_T613M_YF] | 0.664 | 0.405 | 0.491 | 0.535 | 0.574 | 0.385 | 0.888 | 0.429 | 0.496 | 0.721 | 0.447 | 0.558 | 0.393 | 1.06 | 0.845 | 0.699
FSEVRYVKEPF [HIPK4_Y170_YF] | 0.748 | 0.403 | 0.527 | 0.586 | 0.884 | 0.505 | 0.831 | 0.513 | 0.483 | 0.584 | 0.414 | 0.676 | 0.44 | 1.03 | 0.783 | 0.487
HAVYVYDICHV [TWNK_Y508] | 1.68 | 5.08 | 6.29 | 1.59 | 1.41 | 6.45 | 1.31 | 7.09 | 4.08 | 1.01 | 5.12 | 1.18 | 5.04 | 0.87 | 0.898 | 0.867
GLIPAYHRVIM [NMNAT1_Y64] | 0.881 | 0.571 | 0.504 | 0.572 | 0.612 | 0.502 | 0.963 | 0.558 | 0.543 | 1.16 | 0.408 | 0.662 | 0.414 | 1.07 | 0.856 | 1.2
HILFRYPKEFQ [IDS_Y234_P231L] | 1.33 | 0.822 | 0.797 | 0.866 | 0.92 | 0.779 | 1.19 | 0.63 | 0.603 | 1.59 | 0.573 | 0.744 | 1.64 | 0.625 | 0.791 | 0.572
RRIHSYRCHLW [VHL_Y112_G114C] | 0.967 | 0.564 | 0.477 | 0.642 | 0.641 | 0.68 | 1.25 | 0.767 | 0.629 | 0.762 | 0.786 | 0.822 | 0.748 | 0.707 | 0.61 | 0.651
FVGGFYGGCNE [CTSC_Y352_YF] | 1.22 | 0.696 | 0.752 | 0.632 | 0.918 | 0.941 | 1.42 | 0.666 | 1.02 | 1.27 | 0.516 | 0.86 | 0.784 | 0.895 | 0.563 | 0.589
KILGTYYETGS [PAX2_Y72_R71T] | 0.875 | 0.66 | 0.641 | 1.85 | 1.61 | 0.466 | 0.936 | 0.769 | 0.818 | 0.653 | 1.01 | 0.592 | 1.29 | 1.02 | 0.822 | 1.23
IVRSPYEDLED [VHL_Y185_L184P] | 1.31 | 0.58 | 0.682 | 0.571 | 0.704 | 0.562 | 1.16 | 0.506 | 0.528 | 1.35 | 0.533 | 0.748 | 0.531 | 0.962 | 0.766 | 5.64
